Test results taken from article PMC2734569, “Functional mapping of the fission yeast DNA polymerase δ B-subunit Cdc1 by site-directed and random pentapeptide insertion mutagenesis” (BMC Molecular Biology, 2009).

Experiments:
Assay in all cases: two-hybrid; LexA-Cdc1 bait (pBTM116 or pBTM116BN) with Gal4 activation domain-Cdc27 prey (pGAD2F-Cdc27) in S. cerevisiae CTY10-5d; ONPG liquid culture beta-galactosidase assay, mean of triplicates, as percent of wild-type Cdc1
Details in all cases: partners not purified
[1] = biological target: T1, Cdc1-J9 (Schizosaccharomyces pombe, UniProt P87324 1-462, Met-ArgGlyThrProMet-Thr)
T1 construct: Cdc1, S. pombe, with a pentapeptide inserted after residue 174; source: yeast two-hybrid fusion, in S. cerevisiae CTY10-5d
T1 sequence (looked up): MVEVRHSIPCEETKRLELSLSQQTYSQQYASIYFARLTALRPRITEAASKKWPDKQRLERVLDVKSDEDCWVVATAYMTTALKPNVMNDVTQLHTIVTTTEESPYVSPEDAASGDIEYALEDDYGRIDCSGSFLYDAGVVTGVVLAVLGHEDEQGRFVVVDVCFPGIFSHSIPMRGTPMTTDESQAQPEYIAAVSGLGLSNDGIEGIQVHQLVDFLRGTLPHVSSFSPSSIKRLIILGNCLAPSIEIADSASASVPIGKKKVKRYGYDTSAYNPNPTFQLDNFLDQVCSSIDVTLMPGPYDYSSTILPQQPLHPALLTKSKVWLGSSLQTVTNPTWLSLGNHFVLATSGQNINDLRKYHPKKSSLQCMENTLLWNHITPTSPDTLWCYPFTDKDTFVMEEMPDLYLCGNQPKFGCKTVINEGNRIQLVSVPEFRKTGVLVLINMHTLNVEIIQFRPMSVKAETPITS

[2] = biological target: T2, Cdc1-J7 (Schizosaccharomyces pombe, UniProt P87324 1-462, Met-GlyValProLeuMet-Glu)
T2 construct: Cdc1, S. pombe, with a pentapeptide inserted after residue 393; source: yeast two-hybrid fusion, in S. cerevisiae CTY10-5d
T2 sequence (looked up): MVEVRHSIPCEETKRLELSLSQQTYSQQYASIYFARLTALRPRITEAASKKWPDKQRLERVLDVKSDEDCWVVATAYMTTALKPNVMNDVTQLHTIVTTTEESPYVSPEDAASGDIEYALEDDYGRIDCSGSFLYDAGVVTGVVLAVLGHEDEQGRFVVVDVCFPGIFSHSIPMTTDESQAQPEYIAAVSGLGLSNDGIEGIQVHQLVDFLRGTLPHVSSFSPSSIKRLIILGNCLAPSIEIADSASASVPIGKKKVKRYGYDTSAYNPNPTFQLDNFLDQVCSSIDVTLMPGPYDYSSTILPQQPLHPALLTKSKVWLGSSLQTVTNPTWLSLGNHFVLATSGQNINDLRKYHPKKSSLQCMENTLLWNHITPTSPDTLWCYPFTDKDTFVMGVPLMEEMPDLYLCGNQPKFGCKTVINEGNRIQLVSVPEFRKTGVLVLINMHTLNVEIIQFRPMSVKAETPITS

[3] = biological target: T3, Cdc1-A5 (Schizosaccharomyces pombe, UniProt P87324 1-462, Asn328Ala)
T3 construct: Cdc1, S. pombe, point mutant; source: yeast two-hybrid fusion, in S. cerevisiae CTY10-5d
T3 sequence (looked up): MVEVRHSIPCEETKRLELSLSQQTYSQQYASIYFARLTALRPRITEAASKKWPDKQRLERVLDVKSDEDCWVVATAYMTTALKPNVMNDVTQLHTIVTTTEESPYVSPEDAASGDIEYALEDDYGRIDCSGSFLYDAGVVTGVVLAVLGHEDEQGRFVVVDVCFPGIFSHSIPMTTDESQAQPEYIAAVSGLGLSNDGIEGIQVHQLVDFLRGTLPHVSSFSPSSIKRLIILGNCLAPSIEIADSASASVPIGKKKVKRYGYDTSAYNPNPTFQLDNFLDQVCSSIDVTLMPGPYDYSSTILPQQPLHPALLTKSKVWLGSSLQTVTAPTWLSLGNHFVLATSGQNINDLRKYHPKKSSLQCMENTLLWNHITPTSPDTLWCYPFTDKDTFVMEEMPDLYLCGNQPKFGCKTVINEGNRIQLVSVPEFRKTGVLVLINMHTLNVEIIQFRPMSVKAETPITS

[4] = biological target: T4, Cdc1-A10 (Schizosaccharomyces pombe, UniProt P87324 1-462, Asn328Ala | Pro329Ala)
T4 construct: Cdc1, S. pombe, double point mutant (A5 and A6 combined); source: yeast two-hybrid fusion, in S. cerevisiae CTY10-5d
T4 sequence (looked up): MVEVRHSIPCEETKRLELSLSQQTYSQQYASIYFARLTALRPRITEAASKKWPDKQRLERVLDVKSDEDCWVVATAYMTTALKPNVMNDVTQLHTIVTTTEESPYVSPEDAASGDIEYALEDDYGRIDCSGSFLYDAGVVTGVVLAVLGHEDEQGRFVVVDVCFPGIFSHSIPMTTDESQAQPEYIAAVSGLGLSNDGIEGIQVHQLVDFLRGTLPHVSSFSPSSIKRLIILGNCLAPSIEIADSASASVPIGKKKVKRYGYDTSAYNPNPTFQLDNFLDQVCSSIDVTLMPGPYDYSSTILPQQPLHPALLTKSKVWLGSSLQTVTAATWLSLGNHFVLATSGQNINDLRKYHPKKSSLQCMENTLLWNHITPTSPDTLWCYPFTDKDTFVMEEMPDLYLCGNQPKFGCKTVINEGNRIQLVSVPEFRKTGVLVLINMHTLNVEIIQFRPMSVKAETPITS

B1: Cdc27 (fission yeast DNA polymerase delta C-subunit) (natural protein, Schizosaccharomyces pombe, UniProt P30261 1-372, looked up)
chain: MEEWRNFLDIKVINESSLVTVDNLSLQLDISSEKAQEYLNMFYQGNDFLYPIYLIHGQPIDDEINLEIDEESQPISNFPVLQYILCDKSSLQEKQSRLKSGYKTVIFALSSAPLSDFDELLPAVYEIREKDVLYKKEDADKYGFIFNENSVPRVLKKAPSTHSPQLSVPSKTSTIDKTDTRSTEKTKGKDIFSNARNQKGNSSRKNKKAPLENHKEKEPLLPKEEKLSEQAKRERDDLKNIMQLEDESVSTTSVHDSEDDNLDSNNFQLEIGTEAKSAAPDEPQEIIKSVSGGKRRGKRKVKKYATTKDEEGFLVTKEEEVWESFSEDENISTGTSNVVRNKPTTVNIATKKKNTAQSKPQQKSIMSFFGKK
notes: DNA polymerase delta C-subunit Cdc27, S. pombe; prey plasmid pGAD2F-Cdc27; also called pGAD2F-Cdc27; source: yeast two-hybrid fusion, in S. cerevisiae CTY10-5d
With B1 the “two-hybrid beta-galactosidase activity, % of wild-type Cdc1” value [1] was 102%, the “two-hybrid beta-galactosidase activity, % of wild-type Cdc1” value [2] was 19% and the “two-hybrid beta-galactosidase activity, % of wild-type Cdc1” value [3] was 37%. The “two-hybrid beta-galactosidase activity, % of wild-type Cdc1” value [4] was 72%.
